# Results reported in the RNAGym collection of RNA variant scans (doi:10.1073/pnas.2313332121).
# This sample holds only a part of the variants without activity.
# B1: TPR 5TU (parent)
# chain: GGAUCUUCUCGAUCUAACAAAAAAGACAAAUCUGCCACAAAGCUUGAGAGCAUCUUCGGAUGCAGAGGCGGCAGCCUUCGGUGGCGCGAUAGCGCCAACGUUCUCAACUAUGACACGCAAAACGCGUGCUCCGUUGAAUGGAGUUUAUCAUG
# Variants of: B1
# Test: polymerase ribozyme fitness, log enrichment relative to wild type (log ratio); higher = more active; in vitro selection for triplet polymerase activity
# Procedure, shortened: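 For each subunit of a heterodimeric triplet polymerase ribozyme, a mutant library was built by PCR and transcribed, then taken through a single in vitro selection round in triplicate. Selection involved annealing to a biotinylated primer, the partner subunit and triplets, incubation frozen at −7 °C, gel excision of extended constructs, capture on streptavidin beads and RT-PCR. Genotypes were retained after Illumina sequencing of inputs and outputs only with ≥10 input reads and ≥1 read in each output. Fitness is defined as the logarithm of a genotype's enrichment relative to wild-type enrichment, using inverse-variance-weighted averages across replicates, with the logarithm taken to base 2.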
row,Variant,polymerase ribozyme fitness (log ratio)
1,A22C C54U G84U U104G C114G G133U,≤ -4.2
2,A21G G25A U56A C93U A119G A120C U146C,-3.11
3,A21U A73U C116A U134A G141C A150G,≤ -4.2
4,A21U A91G,-2.85
5,A21U A39C C57U A97G,-2.62
6,A21U A26U G83A A106G,-3.03
7,A21G G81U C95A C96A A98U U145A,-1.34
8,A21U C105G A113G C116U,-4.07
9,A21G U33G A37U C85U C95U G141C,≤ -4.2
10,A21U A26G G71A C125U,≤ -4.2
11,A21U C69A G88U A97C,≤ -4.2
12,A22C A52C G81U,-1.38
13,A21U A30C C51U G71U C85U,≤ -4.2
14,A21G C114U,-1.69
15,A21U U53A C57U G83A C95U,-4.06
16,A21G A40U U56A C132A,-3.09
17,A22C A24G C51G A52C U56A A121C,≤ -4.2
18,A21U A119U G124U,-0.526
19,A21G G58C,0.298
20,A21U A41G C95A C96A,-0.65
21,A21C U55G G83U,-0.166

row,Variant,polymerase ribozyme fitness (log ratio)
1,A21G C36A C57U A64G G94U G126C A138G,≤ -4.2
2,A21U C96A,-0.443
3,A21U C96G,-0.697
4,A22C C75G G88U A91G A110G C116A G136A,≤ -4.2
5,A21U A24C C79U G80C C85U C93U,≤ -4.2
6,A21C G25A C63G,-3.29
7,A21U C36A,-3.4
8,A21U G71C C93A,≤ -4.2
9,A21U G50U,0.281
10,A21U G50C,-3.57
11,A22C A39C,-2.49
12,A22C C38U G81U C87G U144A,≤ -4.2
13,A21U C38G C54U G92A G117U A121G,≤ -4.2
14,A21G A106C,-0.348
15,A21U C96U A97U U127C U139G,-2.62
16,A21G A24C U31C C69G U148C,≤ -4.2
17,A21U C32A C51U A73G U134G,≤ -4.2
18,A21U C72U U77G U82G G100C U135G,≤ -4.2
19,A21U G68C C69G C116U,≤ -4.2
20,A22C C63U G67C G84U A98C G128C U144A U151A,≤ -4.2
21,A21G G50C A52C C79U C118U,≤ -4.2

row,Variant,polymerase ribozyme fitness (log ratio)
1,A21U A24U A64C U101G A110G A138C U145A,≤ -4.2
2,A21C G42U C69G C85U A98U A106G A120U,≤ -4.2
3,A21G A40U,0.957
4,A22C A23C C36G C79A C125A G140U,-3.55
5,A21U G71C C79G A107U A142C,≤ -4.2
6,A21G A60G U78C A89U G92A G124U A137G G143U,≤ -4.2
7,A21C G25A G92A G133U A150G,≤ -4.2
8,A21U A49G U55A G84A U104C A137U G140C A150C,≤ -4.2
9,A21C G59C C85U G100C U130A G136A U144G,≤ -4.2
10,A21G A30U A60C U77G C85A G94U G117U A150G,≤ -4.2
11,A21C G88U A142U,≤ -4.2
12,A21C U53A A91U C95G U134A U139C G152U,≤ -4.2
13,A22C A39C U53A G68A A91U U146A,≤ -4.2
14,A21C G94C C116U,0.209
15,A22C C69U C93A U144A,-3.99
16,A22C C38A U44G C75A G84A G117A U135A U151G,≤ -4.2
17,A21U A22G A60G C132G U144C,-4.13
18,A21U G83C,-1.57
19,A21U C27A U44G C87A A137U,≤ -4.2
20,A21U G25A A89C,-3.68
21,A21C U56G A89C C96A C116G A119C,-2.02

row,Variant,polymerase ribozyme fitness (log ratio)
1,A21G G68C C85A G92A G128U,≤ -4.2
2,A21C G42A C54A C96G U102G,≤ -4.2
3,A21G G143A,-0.569
4,A21U C35U C43U U53A A60U G83C A98G A113G,≤ -4.2
5,A21U U33A A40U G58A C85G A98C A106U G126C,≤ -4.2
6,A22C A26U U56A G59C C87G U111C,≤ -4.2
7,A21G C99U,0.465
8,A21U A41C G86A G100U A110C,≤ -4.2
9,A21U C32G G50A G83A G136A,≤ -4.2
10,A21U A52G C76A G81C C87G C114U A121C U146A,≤ -4.2
11,A21U A47U C93U,-0.679
12,A22C C85U,-0.656
13,A22C C85A,-1.08
14,A22C A115C C129G,≤ -4.2
15,A21U G34U C51U G86A A89U U145G,≤ -4.2
16,A21U C69U C96A C129A U135A G143U,-0.753
17,A21G G50C C93U C118U A138U U145A,≤ -4.2
18,A21U U55A C85U U148A,-4.07
19,A21U C72U A122U,-0.472
20,A22C A37U U61G C85G A91U U146A,≤ -4.2
